# Measurements published in patent US20180355053A1 (Stanford University, published 2018).
# T1: human CD20 (human, UniProt P11836 1-297)
# T1 construct: whole, on cells; also called MS4A1
# T1 sequence (looked up): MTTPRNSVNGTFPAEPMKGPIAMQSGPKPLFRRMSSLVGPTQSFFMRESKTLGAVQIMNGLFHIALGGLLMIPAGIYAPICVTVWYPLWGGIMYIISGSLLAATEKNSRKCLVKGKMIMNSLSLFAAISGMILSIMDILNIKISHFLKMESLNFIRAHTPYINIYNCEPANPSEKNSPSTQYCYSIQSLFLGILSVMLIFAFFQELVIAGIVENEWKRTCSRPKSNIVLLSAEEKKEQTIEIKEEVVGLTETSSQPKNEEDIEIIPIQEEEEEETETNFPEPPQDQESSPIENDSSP
# Tests used:
# human CD20 [1] = target: T1, human CD20; experiment: flow cytometry on CD20+CD47- YB2/0 cells
# Source text: FIG. 3A-3B: SIRPα-rituximab bispecific reagents bind to CD20 on the cell surface. The indicated antibodies were used to stain rat YB2/0 cells engineered to express human CD20, but not human CD47 (CD20+CD47−) prior to detection with anti-human secondary antibody by flow cytometry. 2B8=anti-CD20, B6H12=anti-CD47.
# human CD47 = target: T2, human CD47 (human, UniProt Q08722 19-323); experiment: flow cytometry on CD20-CD47+ YB2/0 cells
# T2 construct: whole, on cells
# Source text: FIG. 5A-5B: SIRPα-rituximab bispecific reagents bind to CD47 on the cell surface with reduced affinity relative to anti-CD47. The indicated antibodies were used to stain rat YB2/0 cells engineered to express human CD47, but not human CD20 (CD20−CD47+) prior to detection with fluorescently tagged anti-human secondary antibody by flow cytometry. 2B8=anti-CD20, B6H12=anti-CD47.
# [2] = target: T3, human CD47 tagged with mouse Fc (human, UniProt Q08722 19-139, limits assumed); experiment: ELISA on immobilized recombinant CD47
# T3 construct: also called recombinant CD47 antigen
# Method: FIG. 7: SIRPα-rituximab bispecific reagents bind to CD47 with reduced affinity relative to anti-CD47 and other bispecific antibody formats. Binding of the indicated antibodies to the recombinant CD47 antigen was measured by ELISA over a range of concentrations. Immobilized human CD47 tagged with mouse Fc was used to capture the indicated antibodies prior to detection with HRP-conjugated antibody directed against the human kappa light chain. Data are representative of three experiments performed in triplicate.
# human CD20 [3] = target: T1, human CD20; experiment: flow cytometry competition with 10 µg/ml DyLight 488 anti-CD20 on CD20+CD47- YB2/0 cells
# Source text: FIG. 4: SIRPα-rituximab bispecific reagents bind to CD20 with similar affinity as parental antibody.
binding result (human CD20 [1]),binding result (human CD47),binding result [2],binding result (human CD20 [3]),Binder
binds,binds,binds,,"CD20-2GL-SIRPα (bispecific antibody, human IgG1, kappa, Wild type human SIRPα N-terminal Ig fold fused to the C terminus of the rituximab heavy chain through (GGGGS)2; also called CD20-2GL-SIRPα HC; SIRPabody) heavy: not shown light: QIVLSQSPAILSASPGEKVTMTCRASSSVSYIHWFQQKPGSSPKPWIYATSNLASGVPVRFSGSGSGTSYSLTISRVEAEDAATYYCQQWTSNPPTFGGGTKLEIKRTVAAPSVFIFPPSDEQLKSGTASVVCLLNNFYPREAKVQWKVDNALQSGNSQESVTEQDSKDSTYSLSSTLTLSKADYEKHKVYACEVTHQGLSSPVTKSFNRGEC"
,binds,binds,binds,"SIRPα-CD20 (bispecific antibody, human IgG1, kappa, also called SIRPabody; SIRPα-rituximab bispecific reagent) heavy: not shown light: QIVLSQSPAILSASPGEKVTMTCRASSSVSYIHWFQQKPGSSPKPWIYATSNLASGVPVRFSGSGSGTSYSLTISRVEAEDAATYYCQQWTSNPPTFGGGTKLEIKRTVAAPSVFIFPPSDEQLKSGTASVVCLLNNFYPREAKVQWKVDNALQSGNSQESVTEQDSKDSTYSLSSTLTLSKADYEKHKVYACEVTHQGLSSPVTKSFNRGEC"
binds,binds,binds,,"CD20-4GL-SIRPα (bispecific antibody, human IgG1, kappa, Wild type human SIRPα N-terminal Ig fold fused to the C terminus of the rituximab heavy chain through (GGGGS)4; also called SIRPabody; SIRPα-rituximab bispecific reagent) heavy: not shown light: QIVLSQSPAILSASPGEKVTMTCRASSSVSYIHWFQQKPGSSPKPWIYATSNLASGVPVRFSGSGSGTSYSLTISRVEAEDAATYYCQQWTSNPPTFGGGTKLEIKRTVAAPSVFIFPPSDEQLKSGTASVVCLLNNFYPREAKVQWKVDNALQSGNSQESVTEQDSKDSTYSLSSTLTLSKADYEKHKVYACEVTHQGLSSPVTKSFNRGEC"
